Data from publication doi:10.1101/2025.06.28.662095.

Legend:
[1] = molecular target: MtSteAΔTM (M. tuberculosis SteA truncated soluble construct, residues 12-344) (Mycobacterium tuberculosis); test: crystal structure
[2] = molecular target: MtSteAΔTM (M. tuberculosis SteA truncated soluble construct, residues 12-344) (Mycobacterium tuberculosis); test: SEC-SLS

MtSteAΔTM (M. tuberculosis SteA truncated soluble construct, residues 12-344) (domain or fragment)
stoichiometry N [1]: 2
stoichiometry N [2]: 2
